Experiments:
[1] = molecular target: T1, recombinant human PD-1 His tag protein (Homo sapiens, UniProt Q15116); assay: cell-based or functional assay
T1 sequence (Q15116 25-170): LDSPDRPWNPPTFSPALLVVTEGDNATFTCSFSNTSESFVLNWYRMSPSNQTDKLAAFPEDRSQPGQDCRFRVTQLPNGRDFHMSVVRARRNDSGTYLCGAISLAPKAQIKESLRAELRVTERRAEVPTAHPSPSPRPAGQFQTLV

[2] = molecular target: T1, recombinant human PD-1 His tag protein; assay: SPR; Biacore T200, antibody (3 ug/ml) captured on protein G sensor chip in HBS-EP; single-cycle kinetics with human PD-1 His tag at 10, 20, 40, 80 and 160 nM, 30 ul/min, 60 s association, 120 s dissociation; Langmuir 1:1 model; conditions: both partners purified
[3] = molecular target: T2, recombinant human PD-1 His tag protein (Homo sapiens, UniProt Q15116); assay: SPR; Biacore T200; antibodies (3 ug/ml in HBS-EP) captured on a protein G sensor chip; human PD-1 His tag injected at 10, 20, 40, 80 and 160 nM, single-cycle kinetics, 30 ul/min, 60 s association, 120 s dissociation; Langmuir 1:1 model; conditions: both partners purified
T2 construct: programmed cell death protein 1 (PD-1), human; recombinant, R&D Systems 8986-PD; also called programmed cell death protein 1; source: bought: R&D Systems
T2 sequence (Q15116 25-170): as above

PD-1/PD-L1 blockade bioassay (luciferase reporter; Jurkat/PD-1 effector cells with CHO-K1/PD-L1 cells, 6 h); EC50 of blocking PD-1 with PD-L1 [1] [µg/mL]	Kd [2] [nM]	koff [3] [s⁻¹]	kon [3] [M⁻¹ s⁻¹]	Binder
0.147	8.51			plant-produced Pembrolizumab (antibody, V domains shown, Pembrolizumab heavy chain; DrugBank DB09037; Pembrolizumab light chain (kappa); IgG4 kappa antibody; assembled as full IgG (150 kDa) by non-reducing SDS-PAGE and SEC; also called Pem WT; anti-human PD-1 monoclonal antibody produced in Nicotiana benthamiana; copies: 2 + 2) VH: QVQLVQSGVEVKKPGASVKVSCKASGYTFTNYYMYWVRQAPGQGLEWMGGINPSNGGTNFNEKFKNRVTLTTDSSTTTAYMELKSLQFDDTAVYYCARRDYRFDMGFDYWGQGTTVTVSS VL: EIVLTQSPATLSLSPGERATLSCRASKGVSTSGYSYLHWYQQKPGQAPRLLIYLASYLESGVPARFSGSGSGTDFTLTISSLEPEDFAVYYCQHSRDLPLTFGGGTKVEIK
		0.00339	410000	commercial Pembrolizumab (Keytruda) (antibody, V domains shown, Pembrolizumab heavy chain; as the heavy chain of Wm1 without the C-terminal SEKDEL; Pembrolizumab light chain; as the light chain of Wm1; The commercial drug; also called mammalian cell-produced Pembrolizumab; source: bought: commercial Pembrolizumab (Keytruda), mammalian cell-produced) VH: QVQLVQSGVEVKKPGASVKVSCKASGYTFTNYYMYWVRQAPGQGLEWMGGINPSNGGTNFNEKFKNRVTLTTDSSTTTAYMELKSLQFDDTAVYYCARRDYRFDMGFDYWGQGTTVTVSS VL: EIVLTQSPATLSLSPGERATLSCRASKGVSTSGYSYLHWYQQKPGQAPRLLIYLASYLESGVPARFSGSGSGTDFTLTISSLEPEDFAVYYCQHSRDLPLTFGGGTKVEIK
0.147	8.26			Keytruda (mammalian cell-produced commercial Pembrolizumab) (antibody, V domains shown, Pembrolizumab heavy chain; as the heavy chain of m1 without the C-terminal SEKDEL; DrugBank DB09037; Pembrolizumab light chain; as the light chain of m1; Commercial drug product used as the positive control and comparator; source: bought: commercial Keytruda, mammalian cell-produced) VH: QVQLVQSGVEVKKPGASVKVSCKASGYTFTNYYMYWVRQAPGQGLEWMGGINPSNGGTNFNEKFKNRVTLTTDSSTTTAYMELKSLQFDDTAVYYCARRDYRFDMGFDYWGQGTTVTVSS VL: EIVLTQSPATLSLSPGERATLSCRASKGVSTSGYSYLHWYQQKPGQAPRLLIYLASYLESGVPARFSGSGSGTDFTLTISSLEPEDFAVYYCQHSRDLPLTFGGGTKVEIK

— publication PMC8459022 (Frontiers in Plant Science, 2021)
